# Results: paper PMC10397247
# T1: O6-bN
# T1 chain: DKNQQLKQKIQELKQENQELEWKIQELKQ
# T2: O11-bN
# T2 chain: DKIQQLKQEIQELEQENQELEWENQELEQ
# T3: O15-bN
# T3 chain: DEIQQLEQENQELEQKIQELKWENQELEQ
# T4: O7-bN
# T4 chain: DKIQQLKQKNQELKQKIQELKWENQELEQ
# T5: O4-bN
# T5 chain: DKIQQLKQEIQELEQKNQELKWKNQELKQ
# T6: O3-bN
# T6 chain: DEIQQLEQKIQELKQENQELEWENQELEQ
# T7: O12-bN
# T7 chain: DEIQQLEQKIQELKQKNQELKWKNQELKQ
# T8: O13-bN
# T8 chain: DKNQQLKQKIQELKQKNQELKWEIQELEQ
# T9: O5-bN
# T9 chain: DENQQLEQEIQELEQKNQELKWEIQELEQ
# T10: O8-bN
# T10 chain: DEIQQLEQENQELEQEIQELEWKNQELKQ
# T11: O16-bN
# T11 chain: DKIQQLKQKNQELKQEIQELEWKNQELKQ
# T12: O2-bN
# T12 chain: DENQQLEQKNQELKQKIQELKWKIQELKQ
# T13: O9-bN
# T13 chain: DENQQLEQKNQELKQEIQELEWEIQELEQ
# T14: O14-bN
# T14 chain: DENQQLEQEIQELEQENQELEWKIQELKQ
# T15: P4SN
# T15 chain: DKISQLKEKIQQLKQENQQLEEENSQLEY
# T16: P4
# T16 chain: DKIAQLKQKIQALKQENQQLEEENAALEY
# Assays:
# O6-bN = molecular target: T1, O6-bN; experiment: two-hybrid library CCNG1;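 note: natural log of median RNA to DNA barcode read ratio; higher means stronger binding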
# O11-bN = molecular target: T2, O11-bN; experiment: two-hybrid library CCNG1;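 note: natural log of median RNA to DNA barcode read ratio; higher means stronger binding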
# O15-bN = molecular target: T3, O15-bN; experiment: two-hybrid library CCNG1;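 note: natural log of median RNA to DNA barcode read ratio; higher means stronger binding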
# O7-bN = molecular target: T4, O7-bN; experiment: two-hybrid library CCNG1;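 note: natural log of median RNA to DNA barcode read ratio; higher means stronger binding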
# O4-bN = molecular target: T5, O4-bN; experiment: two-hybrid library CCNG1;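 note: natural log of median RNA to DNA barcode read ratio; higher means stronger binding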
# O3-bN = molecular target: T6, O3-bN; experiment: two-hybrid library CCNG1;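 note: natural log of median RNA to DNA barcode read ratio; higher means stronger binding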
# O12-bN = molecular target: T7, O12-bN; experiment: two-hybrid library CCNG1
# O13-bN = molecular target: T8, O13-bN; experiment: two-hybrid library CCNG1
# O5-bN = molecular target: T9, O5-bN; experiment: two-hybrid library CCNG1
# O8-bN = molecular target: T10, O8-bN; experiment: two-hybrid library CCNG1
# O16-bN = molecular target: T11, O16-bN; experiment: two-hybrid library CCNG1
# O2-bN = molecular target: T12, O2-bN; experiment: two-hybrid library CCNG1
# O9-bN = molecular target: T13, O9-bN; experiment: two-hybrid library CCNG1
# O14-bN = molecular target: T14, O14-bN; experiment: two-hybrid library CCNG1
# P4SN = molecular target: T15, P4SN; experiment: two-hybrid library CCmax; details: mean of both orientations
# P4 = molecular target: T16, P4; experiment: two-hybrid library CCmax; details: mean of both orientations
interaction score (O6-bN),interaction score (O11-bN),interaction score (O15-bN),interaction score (O7-bN),interaction score (O4-bN),interaction score (O3-bN),interaction score (O12-bN),interaction score (O13-bN),interaction score (O5-bN),interaction score (O8-bN),interaction score (O16-bN),interaction score (O2-bN),interaction score (O9-bN),interaction score (O14-bN),interaction score (P4SN),interaction score (P4),Binder
-0.927,-0.191,-0.577,-1.3,0.401,-0.437,0.971,-0.808,-1.06,-1.26,-1.91,-0.23,-0.813,-0.639,,,DKIQQLKQEIQELEQENQELEWENQELEQ [O11-bN]
0.155,,-0.511,-0.201,-0.33,0.565,-0.0253,-0.316,-2.82,0.0745,-0.487,-0.846,-0.349,-0.704,,,DEIQQLEQKIQELKQKNQELKWKNQELKQ [O12-bN]
,,,,,,,,,,,,,,1.9,1.5,DEIQQLEEEIAQLEWKNAALKEKNAQLKA [P3_WA]
